Values quoted from earlier work as cited in PMC10919381.
Read-outs that look alike come from different tables or passages of the source.

How the values were obtained:
[1] = target: CBP/p300 TAZ1 (Homo sapiens) (UniProt Q92793)
[2] = target: CBP/p300 TAZ1 (Homo sapiens) (UniProt Q92793); remark: listed apart in the source

UniProt Q92793, sequence (Q92793 347-433): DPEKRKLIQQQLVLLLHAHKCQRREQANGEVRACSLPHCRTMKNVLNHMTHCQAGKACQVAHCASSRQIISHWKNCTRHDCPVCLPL

| Substance | Kd [1] [nM] | Kd [2] [nM] |
| --- | --- | --- |
| HIF-1α (from UniProt Q16665) | 10 |  |
| CITED2 (from UniProt Q99967) |  | 10 |
